Columns and labels:
[1] = biological target: T1, rhDtk-Fc (Homo sapiens, UniProt Q06418); assay: ELISA binding on immobilized rhDtk-Fc protein; details: starting concentration 5 μg/ml, 1/2 serial dilutions
T1 construct: purchased R and D Systems 859-DK
Description: (§1) Briefly, the recombinant human Axl-Fc (R and D systems, cat N° 154AL/CF), rhDtk (R and D Systems, cat N° 859-DK) or rhMer-Fc (R and D Systems, cat N° 891-MR) proteins were coated overnight at 4° C. to Immulon II 96-well plates and, after a 1 h blocking step with a 0.5% gelatine solution, 1613F12 was added for an additional 1 h at 37° C. at starting concentration of 5 μg/ml (3.33 10^−8M). Then ½ serial dilutions were done over 12 columns. Plates were washed and a goat anti-mouse (Jackson) specific IgG-HRP was added for 1 h at 37° C. Reaction development was performed using the TMB substrate solution. The isotype control antibody mIgG1 and the commercial anti-Axl Mab 154 antibody were also used in parallel. Coating controls were performed in presence of a goat anti-human IgG Fc polyclonal serum labelled with HRP (Jackson, ref 109-035-098) and/or in presence of a HRP-coupled anti-Histidine antibody (R and D Systems, ref: MAB050H).

[2] = test system: MCF7 human breast tumor cell line; assay: FACS binding on MCF7 cells
Description: For cell surface binding studies, two fold serial dilutions of a 10 μg/ml (6.66 10^−8 M) primary antibody solution (1613F12, MAB154 or mIgG1 isotype control 9G4 Mab) are prepared and are applied on 2·10^5 cells for 20 min at 4° C. After 3 washes in phosphate-buffered saline (PBS) supplemented with 1% BSA and 0.01% NaN3, cells were incubated with secondary antibody Goat anti-mouse Alexa 488 ( 1/500° dilution) for 20 minutes at 4° C. After 3 additional washes in PBS supplemented with 1% BSA and […], cells were analyzed by FACS (Facscalibur, Becton-Dickinson). At least 5000 cells were assessed to calculate the mean value of fluorescence intensity.
1613F12 dose response curves were prepared. MFIs obtained using the various human tumor cells were then analysed with Prism software.

[3] = biological target: T2, recombinant human Axl-Fc (R and D Systems, cat N° 154AL/CF) (human, UniProt P30530 26-451); assay: ELISA on coated rhAxl-Fc
T2 construct: Bought protein; also called rhAxl-Fc; rh Axl-Fc protein; not shown: Fc of human IgG (coating control with anti-human IgG Fc)
T2 sequence: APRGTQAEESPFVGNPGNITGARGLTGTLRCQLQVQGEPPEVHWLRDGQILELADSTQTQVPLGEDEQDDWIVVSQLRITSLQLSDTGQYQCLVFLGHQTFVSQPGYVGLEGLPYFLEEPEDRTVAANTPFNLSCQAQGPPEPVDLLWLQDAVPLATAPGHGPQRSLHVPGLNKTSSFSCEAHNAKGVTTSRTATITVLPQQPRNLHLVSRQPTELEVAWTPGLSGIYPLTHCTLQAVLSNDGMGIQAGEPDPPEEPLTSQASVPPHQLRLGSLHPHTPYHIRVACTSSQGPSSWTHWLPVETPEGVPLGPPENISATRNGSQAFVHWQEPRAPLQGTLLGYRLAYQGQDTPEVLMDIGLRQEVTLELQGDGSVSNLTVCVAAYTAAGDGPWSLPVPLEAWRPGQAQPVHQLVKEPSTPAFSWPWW

[4] = biological target: T3, rhMer-Fc (Homo sapiens, UniProt Q12866); assay: ELISA binding on immobilized rhMer-Fc protein; details: starting concentration 5 μg/ml, 1/2 serial dilutions
T3 construct: purchased R and D Systems 891-MR
T3 sequence (Q12866 with tags, fused parts or gaps limits assumed): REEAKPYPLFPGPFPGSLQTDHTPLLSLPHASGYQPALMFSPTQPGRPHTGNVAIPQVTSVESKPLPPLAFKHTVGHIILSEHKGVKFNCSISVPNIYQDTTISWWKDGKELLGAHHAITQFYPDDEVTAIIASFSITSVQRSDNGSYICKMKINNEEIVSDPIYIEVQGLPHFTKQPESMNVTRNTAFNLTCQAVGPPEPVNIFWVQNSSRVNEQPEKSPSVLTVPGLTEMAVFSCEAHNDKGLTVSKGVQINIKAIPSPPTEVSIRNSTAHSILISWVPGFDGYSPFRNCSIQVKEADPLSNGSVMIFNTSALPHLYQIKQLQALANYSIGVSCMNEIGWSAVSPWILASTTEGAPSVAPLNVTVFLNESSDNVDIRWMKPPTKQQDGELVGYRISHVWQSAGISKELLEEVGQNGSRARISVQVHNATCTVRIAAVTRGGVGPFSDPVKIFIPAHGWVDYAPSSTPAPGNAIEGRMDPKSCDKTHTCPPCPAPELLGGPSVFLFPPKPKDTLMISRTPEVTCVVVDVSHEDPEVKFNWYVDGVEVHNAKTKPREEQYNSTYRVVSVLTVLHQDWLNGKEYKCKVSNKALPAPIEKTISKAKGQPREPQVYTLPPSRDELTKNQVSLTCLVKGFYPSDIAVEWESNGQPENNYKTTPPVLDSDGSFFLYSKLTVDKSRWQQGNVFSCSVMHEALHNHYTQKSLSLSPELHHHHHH
Description: as §1

[5] = biological target: T4, rhMer-Fc (R and D Systems, cat N° 891-MR) (human, UniProt Q12866 26-499, limits assumed); assay: ELISA on coated protein
T4 construct: Bought protein; not shown: Fc of human IgG
T4 sequence (looked up): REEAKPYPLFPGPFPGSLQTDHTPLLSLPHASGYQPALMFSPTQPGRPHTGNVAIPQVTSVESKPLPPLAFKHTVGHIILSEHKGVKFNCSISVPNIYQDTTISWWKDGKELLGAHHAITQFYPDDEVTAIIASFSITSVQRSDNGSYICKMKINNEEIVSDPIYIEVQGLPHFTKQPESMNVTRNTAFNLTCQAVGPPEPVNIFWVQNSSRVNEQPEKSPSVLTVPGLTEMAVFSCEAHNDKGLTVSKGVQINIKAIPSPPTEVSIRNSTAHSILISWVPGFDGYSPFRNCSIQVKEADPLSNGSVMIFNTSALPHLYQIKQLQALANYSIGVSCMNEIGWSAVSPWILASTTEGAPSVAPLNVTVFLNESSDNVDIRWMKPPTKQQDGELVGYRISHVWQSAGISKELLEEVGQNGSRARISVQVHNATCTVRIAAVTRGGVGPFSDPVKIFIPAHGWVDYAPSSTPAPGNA

[6] = biological target: T5, rhDtk-Fc (R and D Systems, cat N° 859-DK) (human, UniProt Q06418 41-428, limits assumed); assay: ELISA on coated protein
T5 construct: Bought protein; also called Tyro3; not shown: Fc of human IgG
T5 sequence (looked up): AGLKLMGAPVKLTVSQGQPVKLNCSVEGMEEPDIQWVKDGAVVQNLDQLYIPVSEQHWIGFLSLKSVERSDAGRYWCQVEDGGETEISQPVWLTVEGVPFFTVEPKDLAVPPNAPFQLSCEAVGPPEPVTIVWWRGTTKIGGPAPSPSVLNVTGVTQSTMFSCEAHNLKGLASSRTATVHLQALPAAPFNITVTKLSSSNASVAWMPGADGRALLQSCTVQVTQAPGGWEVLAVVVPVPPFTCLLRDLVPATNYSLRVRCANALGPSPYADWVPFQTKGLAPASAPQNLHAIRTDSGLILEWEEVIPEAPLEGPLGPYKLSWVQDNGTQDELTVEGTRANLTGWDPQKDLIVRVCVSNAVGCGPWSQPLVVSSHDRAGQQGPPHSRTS

[7] = biological target: T6, rhAxl-Fc protein (Homo sapiens, UniProt P30530); assay: ELISA binding on immobilized rhAxl-Fc protein; details: starting concentration 5 μg/ml, 1/2 serial dilutions
T6 construct: purchased R and D Systems 154AL/CF
T6 sequence (P30530 26-451 limits assumed): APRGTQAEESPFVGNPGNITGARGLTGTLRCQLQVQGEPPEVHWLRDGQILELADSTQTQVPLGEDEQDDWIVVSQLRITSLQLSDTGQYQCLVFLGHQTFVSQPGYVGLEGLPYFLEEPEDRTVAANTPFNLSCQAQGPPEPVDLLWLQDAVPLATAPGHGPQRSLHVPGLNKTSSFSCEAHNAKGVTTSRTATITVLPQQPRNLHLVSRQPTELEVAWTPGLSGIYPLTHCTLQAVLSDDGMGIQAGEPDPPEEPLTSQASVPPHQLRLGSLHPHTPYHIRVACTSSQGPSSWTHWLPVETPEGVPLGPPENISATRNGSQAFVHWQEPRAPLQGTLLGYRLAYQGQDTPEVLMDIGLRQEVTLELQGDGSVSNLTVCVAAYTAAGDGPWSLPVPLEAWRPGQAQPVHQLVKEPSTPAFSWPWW
Description: as §1

T1 sequence (Q06418 with tags, fused parts or gaps limits assumed): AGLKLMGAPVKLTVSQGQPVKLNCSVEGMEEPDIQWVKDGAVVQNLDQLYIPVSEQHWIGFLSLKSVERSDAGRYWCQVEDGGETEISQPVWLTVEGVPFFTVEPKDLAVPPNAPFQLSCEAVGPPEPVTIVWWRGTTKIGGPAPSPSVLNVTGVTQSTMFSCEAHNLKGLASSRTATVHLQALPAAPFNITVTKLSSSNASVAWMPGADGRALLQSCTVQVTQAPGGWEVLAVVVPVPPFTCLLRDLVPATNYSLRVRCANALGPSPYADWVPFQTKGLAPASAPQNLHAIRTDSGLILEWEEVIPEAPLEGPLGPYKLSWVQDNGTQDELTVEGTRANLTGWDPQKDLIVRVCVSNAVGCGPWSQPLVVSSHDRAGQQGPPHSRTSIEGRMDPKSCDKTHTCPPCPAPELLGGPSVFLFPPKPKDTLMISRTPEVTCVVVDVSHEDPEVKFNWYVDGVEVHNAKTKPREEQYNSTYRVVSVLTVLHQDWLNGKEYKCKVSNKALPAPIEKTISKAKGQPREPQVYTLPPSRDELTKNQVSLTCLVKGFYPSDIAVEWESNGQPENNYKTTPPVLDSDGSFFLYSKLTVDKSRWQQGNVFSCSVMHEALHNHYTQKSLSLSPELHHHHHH

B1: m1613F12 (murine 1613F12, hybridoma CNCM I-4505) (antibody, V domains shown)
VH: EVHLQQSGAELVKPGASVKLSCTASGFNIRDTYIHWVKQRPEQGLEWIGRLDPANGHTKYGPNFQGRATMTSDTSSNTAYLQLSSLTSEDTAVYYCARGAYYYGSSGLFYFDYWGQGTTLSVSS
VL: DVQITQSPSYLATSPGETITINCRASKSISKYLAWYQEKPGKTNKLLIYSGSTLQSGVPSRFSGSGSGTDFTLTISSLEPEDFAMYFCQQHHEYPLTFGAGTELELK
notes: Murine monoclonal antibody; also called Axl antibody
binding on rhDtk (ELISA) [1]: does not bind | binding of Axl receptor on MCF7 (FACS) [2]: No binding of Axl receptor was observed | binding result [3]: binds | binding on rhMer (ELISA) [4]: does not bind | binding result [5]: no binding | binding result [6]: no binding | binding on rhAxl-Fc protein (ELISA) [7]: only binds to the rhAxl-Fc protein
